doi:10.1101/2021.08.19.456998 (2021)
Where no end group is shown, it is not given here. The star is where a group is joined. Biotin = O=C1N[C@H]2[C@H](CS[C@H]2CCCCC(=O)*)N1

Key:
[1] = target: T1, cleaved SPAK (human SPAK CCT domain, residues 441-545, tags removed with TEV protease) (human); experiment: waveRAPID, heterogeneous ligand model, second site
[2] = target: T2, cleaved OSR1 (human OSR1 CCT domain, residues 423-527, tags removed with TEV protease) (human); experiment: waveRAPID, 1:1 model
T2 sequence (chain, as listed by the source): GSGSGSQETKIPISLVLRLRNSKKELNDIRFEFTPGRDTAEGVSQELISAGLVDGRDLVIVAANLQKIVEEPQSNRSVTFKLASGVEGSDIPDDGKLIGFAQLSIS

[3] = target: T2, cleaved OSR1 (human OSR1 CCT domain, …); experiment: multicycle kinetics, 1:1 model
[4] = target: T1, cleaved SPAK (human SPAK CCT domain, …); experiment: waveRAPID, heterogeneous ligand model, second site; remark: listed apart in the source
[5] = target: T1, cleaved SPAK (human SPAK CCT domain, …); experiment: waveRAPID, heterogeneous ligand model, site 1
[6] = target: T3, biotin-OSR (uncleaved human OSR1 CCT domain, residues 423-527, biotinylated on the AviTag) (human, biotin on the lysine of the AviTag (…)); experiment: waveRAPID
T3 sequence (chain, as listed by the source): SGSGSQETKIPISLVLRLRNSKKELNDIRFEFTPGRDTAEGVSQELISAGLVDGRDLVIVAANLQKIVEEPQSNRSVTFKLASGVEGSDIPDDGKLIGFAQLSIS

[7] = target: T4, biotin-SPAK (uncleaved human SPAK CCT domain, residues 441-545, biotinylated on the AviTag) (human, biotin on the lysine of the AviTag (…)); experiment: waveRAPID
[8] = target: T3, biotin-OSR (uncleaved human OSR1 CCT …); experiment: multicycle kinetics
[9] = target: T4, biotin-SPAK (uncleaved human SPAK CCT …); experiment: multicycle kinetics

| Kd [1] | koff [2] | koff [3] | koff [4] | koff [5] | koff [6] | koff [7] | koff [8] | koff [9] | Binder |
| --- | --- | --- | --- | --- | --- | --- | --- | --- | --- |
| 4.25 nM | 0.662 s⁻¹ | 1.13 s⁻¹ | 6.98e-05 s⁻¹ | 0.584 s⁻¹ |  |  |  |  | {Biotin-C6}-SEEGKPQLVGRFQVTSSK [Biotin-C6-SEEGKPQLVGRFQVTSSK (N-terminally biotinylated 18-mer RFQV peptide derived from WNK4)] |
|  |  |  |  |  | 0.56 s⁻¹ | 0.614 s⁻¹ | 0.68 s⁻¹ | 0.327 s⁻¹ | SEEGKPQLVGRFQVTSSK [18-mer RFQV peptide derived from WNK4 (SEEGKPQLVGRFQVTSSK), unbiotinylated] |
